According to patent publication US20200190189A1 (Adimab, published 2020):

T1: Human CD3εδ heterodimeric Fc fusion (Hu CD3εδ Fc) (human)
T1 chain 1: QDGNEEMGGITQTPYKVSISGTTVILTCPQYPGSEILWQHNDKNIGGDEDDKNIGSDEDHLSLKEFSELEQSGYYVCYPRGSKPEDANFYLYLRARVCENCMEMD
T1 chain 2: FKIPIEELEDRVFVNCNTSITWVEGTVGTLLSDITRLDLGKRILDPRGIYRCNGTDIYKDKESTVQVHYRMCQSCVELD

T2: Cynomolgus CD3εδ heterodimeric Fc fusion (Cy CD3εδ Fc) (cynomolgus)
T2 chain 1: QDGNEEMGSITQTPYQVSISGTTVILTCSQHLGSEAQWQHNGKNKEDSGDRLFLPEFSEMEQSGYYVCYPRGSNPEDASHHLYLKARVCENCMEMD
T2 chain 2: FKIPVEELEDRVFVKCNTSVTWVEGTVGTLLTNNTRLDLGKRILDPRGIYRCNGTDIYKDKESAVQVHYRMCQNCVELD


Key:
[1] = target: T1, Human CD3εδ heterodimeric Fc fusion (Hu …); assay: IgG, avid; method not named at the table (ForteBio BLI in Methods)
[2] = target: T2, Cynomolgus CD3εδ heterodimeric Fc …; assay: as above

Row | Kd [1] [nM] | Kd [2] [nM] | Binder
1 | 3.3 | 2.6 | ADI-26915 IgG1 (antibody, V domains shown) VH: QVQLVQSGAEVKKPGASVKVSCKASGFNIKDYYMHWVRQAPGQRLEWMGWIDLEEGNTIYDAKFQGRVTITRDTSASTAYMELSSLRSEDTAVYYCARDVLGRYFYDVWGQGTLVTVSS VL: DIVMTQSPDSLAVSLGERATINCKSSQSLLNARTGKNYLAWYQQKPGQPPKLLIYWASTRESGVPDRFSGSGSGTDFTLTISSLQAEDVAVYYCKQSYSRRTFGGGTKVEIK
2 | 2.2 | 0.4 | ADI-26913 IgG1 (antibody, V domains shown) VH: QVQLVQSGAEVKKPGASVKVSCKASGFNIKDYYMHWVRQAPGQRLEWMGWIDLENANTIYDAKFQGRVTITRDTSASTAYMELSSLRSEDTAVYYCARDQYGRYFYDVWGQGTLVTVSS VL: DIVMTQSPDSLAVSLGERATINCKSSQSLLNARTGKNYLAWYQQKPGQPPKLLIYWASTRESGVPDRFSGSGSGTDFTLTISSLQAEDVAVYYCKQSYSRRTFGGGTKVEIK

The remaining lines, values behind:

Row | Binder | Kd [1] [nM] | Kd [2] [nM]
3 | ADI-22523 IgG1 (antibody, V domains shown) VH: QVQLVQSGAEVKKPGASVKVSCKASGFNIKDYYMHWVRQAPGQRLEWMGWIDLENGNTIYDPKFQGRVTITRDTSASTAYMELSSLRSEDTAVYYCARDGYGRYFYDVWGQGTLVTVSS VL: DIVMTQSPDSLAVSLGERATINCKSSQSLLNSRTGKNYLAWYQQKPGQPPKLLIYWASTRESGVPDRFSGSGSGTDFTLTISSLQAEDVAVYYCKQSYSRRTFGGGTKVEIK | 0.2 | 0.22
4 | ADI-26906 IgG1 (antibody, V domains shown) VH: QVQLVQSGAEVKKPGASVKVSCKASGFNIKDYYMHWVRQAPGQRLEWMGWIDLENANTIYDAKFQGRVTITRDTSASTAYMELSSLRSEDTAVYYCARDAYGRYFYDVWGQGTLVTVSS VL: DIVMTQSPDSLAVSLGERATINCKSSQSLLNARTGKNYLAWYQQKPGQPPKLLIYWASTRESGVPDRFSGSGSGTDFTLTISSLQAEDVAVYYCKQSYSRRTFGGGTKVEIK | 1.6 | 0.25
5 | ADI-26908 IgG1 (antibody, V domains shown) VH: QVQLVQSGAEVKKPGASVKVSCKASGFNIKDYYMHWVRQAPGQRLEWMGWIDLEEGNTIYDAKFQGRVTITRDTSASTAYMELSSLRSEDTAVYYCARDAYGRYFYDVWGQGTLVTVSS VL: DIVMTQSPDSLAVSLGERATINCKSSQSLLNARTGKNYLAWYQQKPGQPPKLLIYWASTRESGVPDRFSGSGSGTDFTLTISSLQAEDVAVYYCKQSYSRRTFGGGTKVEIK | 1.5 | 0.31
